According to a protein production outcome set (Wang et al. 2014):

Experiment: label from the status in PepcDB records
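Note: failed if final PepcDB status was selected cloned or expressed and not failed if soluble or beyond.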

Protein production, failed:
MRSSQAIDFERIPEMEDKWRKEITAMTVTLQDKRKAIQNDEILRGVHPKSHGCLDAEFTVNRDIAPQFQVGLFAQPGKCFRARIRYSNADVLKRADLEKGQDATGARFLNHGSRGMAIKVLDVGAPVLLEDGCARNQDFLMVNTPEFAFRNVRDYLRLTKALCASADGADPLLFFLPGELLKRGMMDMSGSLLPAPAGEPPQNAGLRALFEANRAFFDDFDAEDMQGVISAAGVVGKIQSTPVRNPLFAPYFSAASFRFGKDRVMRFSVVPLQSEEMAADMASDAFEDFSDDYLSQALALSVATNEPIKLSFRIQIAHEEDIVNDIDGMIENAAKTWDEDQFSHTEVAQITINPPCPSAELVDTCKPLLFTPWHAVVDFEPLGGINRLRKPVYSTSAAFRRSVLEHHHHHH
MRSSQGSGADPGARGRVDQRLRRGARPAPTSPHSPAKTNHPLRAAIIGGGPGGLYTAALLKRLAPDREVTVYERNAPDDTFGFGVVLSDETLGGIEHADPTVYEALKAHFVRWDDIDIVHRHTRHTSGGHRFAALGRRRLLEILHDRCRDLGVELRFRTEAPPPDRLARTHDLVVAADGVHSATREAYRDVFRPRLTPHRCRYIWLAADFAFDAFRFEIAETEHGVMQLHGYPFAPDASTVIVEMREEVWRAAGFDELDETESTARCAKIFADALGGRPLRSNKSAWTTFRTVVNERWSHGNIVLLGDAAHTAHFSIGSGTKLAVEDALALAACLAERPTLQEALTAYEEERRPVVASTQRAAKASLEWFEDLDRYLAQPPRQFAFNLLTRSRRVTHENLRLRDAGFTESVEREFGCPPDTPPMFTPFRLRGLTLRNRVVVSPMDMYSATDGVPGDFHLVHLGARALGGAALVMTEMVCVSAEGRITPGCAGLYTGRQGEAWRRITDFVHDGAPGTAIGVQLGHSGRKGSTRLMWEGMDEPLPDGNWPLVAPSPLPYRPGGQVPRELSRAQLADVREQFRAAAERAAGAGFDLLELHCAHGYLLSGFLSPLTNHRTDAYGGSPENRLRFPLEVFDAVREVWPDERPMTVRISATDWAEGGTSAEEAVEIARAFAAHGADAIDVSTGQVVSGERPEFGRSYQTPYADRIRHEAGVPVIAVGAISSWDDVNSLVLAGRTDLCALARPHLYDPHWTLHAAAEQGYDGPGARWPAPYRAGSRPPRTGRTDAPRPRLTLHGPGQDG
MRSSSSSSVLPSLPNARLRRPAVWIAFLAVAALSLTGCDLFGSNDDEGRRVTTDVVIANSGNFSAQDGSLTLYNPTASTATLKDIEVAFINSLAQHNGRLFVVDNTTSDNAGKITTFDTEQLGPVDQITNLQRSPRRIAFPEENKGYVTNLSRDLDDAPSNFVPDTSTVSVVDLEADSVTKRVDVGRSPEGIAAVARKAFVANSADGTLSVLDAGADTVNTTLSLPDCANPKSVFVDDENEVAVVCQGGGEQASEVLFLSPIEETIKDRVELGAPIGSANGSQSAYYSEGAEELYTISGSQAFGGNGTGEIFRIDTNANALDATLEIPQDDGLIGITAVGYDDVTQDLYVTRLPVGAGGFPLFSANGTALVLDRQGNEVTRFETGNSPGHITFLGDRQ
MRSTVAEPPVLDKIIKNVRVVRPHNDAVELLDIGIKDGKFAQIAPNITPDTGQEIFDAKNLLGFPGVVDAHMHIGIYQPLDKDAVTESKAAAMGGVTTSLNYIRTGQYYLNKGGSYRDFFPEVLALSAGNFFVDYSYHVAPIASQHIDEIPLLFEEHGVTSFKIFMFYGGYGLHGLSDQQNLFLMINKEERYDFAHFEFIMRGVTRLMAEYPEARDYISLSLHCEVAEILNAYTKIVENDSSLSGLHAYSAARPPHSEGLAISIAAYLAHETNCANINLLHLSSRKAMEAALIMQTAFPHINFRREVTVGHLLLDVDTPNGTWAKVNPPIRPRADVEYLWQAVLNHQVDWIVSDHACCSAEQKRSAKDPNNIWLAKSGFGGTEYLLSGVVSEGSKRGMSYNHMAKLLSWNPSRRFGLLTKGDIAIGYDADLVLVDPNESFVVRAAESESQQGYTPFEGMELTGRVKSTFLRGSLIYHNGQVLGSPNGRYVRRSLGG
MRSWAIDLEEYLMSKALEGKSPGTVDRYRYELQRLLSYVNKAVRDITEGDISGYMRAYKAIRQVSNQTLKNVRAVYSSFFAWLRDRDRIRRNPMALVEAIKVLEHHHHHH
MRSYAIGDIHGHLSLLQEIHGRIAADRARTGDDEAPVVHIGDLVDRGPDSRGVVEYLRQGIEQGENWVVLKGNHDRMFAGFLRDPAHQDPGLRGDLSWLHPRLGGGPTLESYGVAHAADRPVAIVHREAVALVPAEHVAFIEALPAVYRRDEALFVHAGIRPGVPLAEQIEDDLVWIREPFLSDPRDHGMLVVHGHTAIDAVTHYGNRLNLDSGAAYGGPLSAVVIEGRSVWQLGPEGRRPIALEHHHHHH
